Among the data in PMC5340040 are NaCl concentration (0-200 mM), bundling of 8 μM F-actin (low speed centrifugation): histatin concentration for 50% bundling and decrease of the fluorescence emission values, retold here.

The target in assay [1] is MgF-actin (rabbit skeletal muscle actin, filament) (rabbit) (UniProt P68135).
For assay [2] the target is unchanged. The source holds these as a separate data set.
Assay [3] has the same target. This is another data set of the same source.

Histatin-3 (peptide), sequence (P15516 20-51): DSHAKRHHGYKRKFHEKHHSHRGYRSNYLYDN

Turning to Histatin-3 (peptide), the NaCl concentration (0-200 mM) at which bundles of 4 μM F-actin induced by 16 μM histatin are largely dissociated (low speed centrifugation) in assay [1] amounted to 100 mM. Further, the bundling of 8 μM F-actin (low speed centrifugation): histatin concentration for 50% bundling in assay [2] came to 5 µM. The substance further registered a decrease of the fluorescence emission at 581 nm of 5 μM TRC-F-actin (TRC on Gln41) by 8 μM histatin-3 in assay [3] of 22.3%.
